Laboratory results reported in the supplement of paper PMC9112550, “Optimization of the antimicrobial peptide Bac7 by deep mutational scanning” (BMC Biology, 2022).

Tested on: Escherichia coli TOP10
Assay: shrunken log2 fold change of peptide-encoding DNA abundance (4.5 h post-induction vs induction); higher = less antimicrobial activity (less host growth inhibition)
Details: time post-induction: 4.5 h; library: site-saturation at positions 5, 18, 19, 20
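Note: peptides expressed intracellularly from a pBAD plasmid library in pooled LB shake-flask culture, induced with 0.3% L-arabinose, DNA abundance read by NGS, three biological replicates, DESeq2 with apeglm shrinkage.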

Sequence	shrunken log2 fold change
RRIRLRPPRLPRPRPRPWRTPRP	0.0595
RRIRSRPPRLPRPRPRPPNEPRP	0.0505
RRIRIRPPRLPRPRPRPAKDPRP	-0.268
RRIRTRPPRLPRPRPRPREYPRP	-0.00842
RRIRHRPPRLPRPRPRPPFRPRP	0.141
RRIRRRPPRLPRPRPRPLMRPRP	1.07
RRIRGRPPRLPRPRPRPYQNPRP	-0.0136
RRIRDRPPRLPRPRPRPHNQPRP	-0.398
RRIRERPPRLPRPRPRPMGSPRP	0.00489
RRIRSRPPRLPRPRPRPPCPPRP	0.319
RRIRARPPRLPRPRPRPTGQPRP	0.65
RRIRKRPPRLPRPRPRPETHPRP	0.736
RRIRTRPPRLPRPRPRPFGIPRP	-0.338
RRIRERPPRLPRPRPRPCIRPRP	-0.152
RRIRCRPPRLPRPRPRPPWIPRP	-0.209
RRIRGRPPRLPRPRPRPWHNPRP	-0.145
RRIRCRPPRLPRPRPRPHFAPRP	0.0672
RRIRMRPPRLPRPRPRPCFHPRP	-0.318
RRIRCRPPRLPRPRPRPSNEPRP	-0.379
RRIRQRPPRLPRPRPRPNQGPRP	0.084
RRIRLRPPRLPRPRPRPRQWPRP	0.223
RRIRPRPPRLPRPRPRPVSFPRP	0.0766

Sequence	shrunken log2 fold change
RRIRARPPRLPRPRPRPTHDPRP	0.645
RRIRTRPPRLPRPRPRPGRIPRP	-0.171
RRIRQRPPRLPRPRPRPYDEPRP	-0.00145
RRIRWRPPRLPRPRPRPQYNPRP	-0.554
RRIRDRPPRLPRPRPRPWWCPRP	-0.00632
RRIRRRPPRLPRPRPRPYHIPRP	-0.365
RRIRWRPPRLPRPRPRPSNRPRP	-0.174
RRIRFRPPRLPRPRPRPMWTPRP	-0.37
RRIRPRPPRLPRPRPRPGKWPRP	0.118
RRIRQRPPRLPRPRPRPYTAPRP	-0.219
RRIRMRPPRLPRPRPRPKVKPRP	0.614
RRIRHRPPRLPRPRPRPLNWPRP	0.0279
RRIRYRPPRLPRPRPRPQKPPRP	-0.0745
RRIRQRPPRLPRPRPRPNQPPRP	-0.0757
RRIRCRPPRLPRPRPRPRKFPRP	-0.00353
RRIRYRPPRLPRPRPRPFNAPRP	-2.15
RRIRRRPPRLPRPRPRPIAEPRP	0.446
RRIRLRPPRLPRPRPRPKLQPRP	0.356
RRIRQRPPRLPRPRPRPGAIPRP	0.0781
RRIRMRPPRLPRPRPRPDVVPRP	-0.0061
RRIRARPPRLPRPRPRPQAMPRP	0.132
RRIRTRPPRLPRPRPRPNRGPRP	-0.0939

Sequence	shrunken log2 fold change
RRIRKRPPRLPRPRPRPLALPRP	0.536
RRIRKRPPRLPRPRPRPHMTPRP	0.0202
RRIRNRPPRLPRPRPRPRCGPRP	0.0586
RRIRQRPPRLPRPRPRPYCAPRP	-0.624
RRIRVRPPRLPRPRPRPATQPRP	-0.0949
RRIRDRPPRLPRPRPRPQQMPRP	-0.0585
RRIRERPPRLPRPRPRPNANPRP	0.343
RRIRSRPPRLPRPRPRPRCPPRP	0.177
RRIRMRPPRLPRPRPRPVWKPRP	0.178
RRIRARPPRLPRPRPRPLRGPRP	0.954
RRIRIRPPRLPRPRPRPQFQPRP	-0.166
RRIRNRPPRLPRPRPRPVVDPRP	-0.274
RRIRKRPPRLPRPRPRPPSSPRP	0.263
RRIRFRPPRLPRPRPRPMFQPRP	-0.336
RRIRNRPPRLPRPRPRPTHWPRP	0.661
RRIRDRPPRLPRPRPRPSRVPRP	0.0593
RRIRQRPPRLPRPRPRPPLQPRP	0.218
RRIRERPPRLPRPRPRPCDLPRP	-0.01
RRIRVRPPRLPRPRPRPFCEPRP	-0.197
RRIRFRPPRLPRPRPRPCKKPRP	-0.000348
RRIRIRPPRLPRPRPRPAVNPRP	0.131
RRIRFRPPRLPRPRPRPALLPRP	-0.00442

Sequence	shrunken log2 fold change
RRIRGRPPRLPRPRPRPGWDPRP	1.09
RRIRQRPPRLPRPRPRPGTCPRP	-0.266
RRIRCRPPRLPRPRPRPDGKPRP	-0.0306
RRIRCRPPRLPRPRPRPLEFPRP	-0.245
RRIRGRPPRLPRPRPRPYYFPRP	0.0211
RRIRIRPPRLPRPRPRPDHSPRP	-0.152
RRIRKRPPRLPRPRPRPAARPRP	0.742
RRIRRRPPRLPRPRPRPWYDPRP	-0.25
RRIRERPPRLPRPRPRPKPPPRP	0.242
RRIRCRPPRLPRPRPRPNCMPRP	-0.369
RRIRYRPPRLPRPRPRPFMSPRP	-0.348
RRIRYRPPRLPRPRPRPEQPPRP	0.00487
RRIRDRPPRLPRPRPRPQIVPRP	-0.00245
RRIRSRPPRLPRPRPRPYNRPRP	-0.267
RRIRSRPPRLPRPRPRPDTNPRP	-0.111
RRIRHRPPRLPRPRPRPVAGPRP	0.26
RRIRARPPRLPRPRPRPVPAPRP	0.814
RRIRFRPPRLPRPRPRPWYKPRP	-0.145
RRIRVRPPRLPRPRPRPLEWPRP	-0.0248
RRIRWRPPRLPRPRPRPSWQPRP	-0.0268
RRIRARPPRLPRPRPRPPGGPRP	0.864
RRIRWRPPRLPRPRPRPCHPPRP	-0.11

Sequence	shrunken log2 fold change
RRIRWRPPRLPRPRPRPRLFPRP	0.432
RRIRVRPPRLPRPRPRPQECPRP	-0.00813
RRIRQRPPRLPRPRPRPMISPRP	-0.0269
RRIRGRPPRLPRPRPRPQTDPRP	0.381
RRIRIRPPRLPRPRPRPLRWPRP	1.02
RRIRFRPPRLPRPRPRPMLPPRP	-0.184
RRIRWRPPRLPRPRPRPKCVPRP	-0.0153
RRIRVRPPRLPRPRPRPEYAPRP	0.111
RRIRTRPPRLPRPRPRPMYTPRP	-0.156
RRIRERPPRLPRPRPRPCFRPRP	-0.511
RRIRYRPPRLPRPRPRPTSMPRP	-1
RRIRDRPPRLPRPRPRPAHCPRP	-0.0402
RRIRHRPPRLPRPRPRPDLVPRP	-0.104
RRIRERPPRLPRPRPRPHAMPRP	0.0454
RRIRCRPPRLPRPRPRPWPLPRP	0.222
RRIRFRPPRLPRPRPRPAVHPRP	-0.0819
RRIRLRPPRLPRPRPRPYACPRP	-0.0291
RRIRTRPPRLPRPRPRPLNNPRP	-0.135
RRIRERPPRLPRPRPRPDAIPRP	-0.166
RRIRTRPPRLPRPRPRPLTEPRP	-0.23
RRIRMRPPRLPRPRPRPCFWPRP	0.237
